Our source for the protein stability index values is the supplement of paper PMC9732359.

± gives the uncertainty stated by the source.

The nature of this data set: protein stability index of a GFP-peptide fusion (yeast GPS) (PSI 1-4); higher = more stable; sorted into four equal gates, so the index is relative within each strain. The essentials:
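Each library plasmid carries Cherry plus GFP with a tiled 17-residue yeast protein peptide fused downstream, and the pooled library was carried in yeast. Mid-log cultures in leucine-free medium were sorted into four equal gates by GFP/Cherry ratio. Reads from Illumina sequencing of PCR-amplified plasmids from each gate were assigned to strains by barcodes. Per peptide, the protein stability index was computed as the summed products of gate read frequency and gate number.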

In turn, EDDLVGVVQMVTDNKTP [TAF14] gave a protein stability index (doa10∆) of 2.72 ± 0.15, a protein stability index (pdr5∆) of 2.52 ± 0.19 and a protein stability index (san1∆) of 2.84 ± 0.091.

Regarding SGAYSYPDFRHYGLAVD [DIS3], the protein stability index came out at 1.82 ± 0.047 (doa10∆), 2.56 ± 0.056 (pdr5∆), 2.42 ± 0.089 (san1∆) and 2.67 ± 0.043 (ubr1∆).

On to KKLELPKYIDELKTRDA [SWP82], for which the protein stability index by setting is: (doa10∆) 3.03 ± 0.097; (pdr5∆) 3.39 ± 0.092; (san1∆) 2.78 ± 0.077; (ubr1∆) 3.48 ± 0.071.

With TEEPDLAIADVETKLET [DSN1], the protein stability index worked out at 3.2 ± 0.12 (doa10∆), 3.35 ± 0.11 (pdr5∆), 2.48 ± 0.097 (san1∆) and 3.5 ± 0.14 (ubr1∆).

Regarding REVGTKFTTVLAKILAR [ECM29], the protein stability index by setting is: (doa10∆) 1.39 ± 0.086; (pdr5∆) 1.52 ± 0.06; (san1∆) 1.88 ± 0.097; (ubr1∆) 1.44 ± 0.05.

Turning to KTAFKPHELTESVLPAA [QCR2], the protein stability index stood at 2.36 ± 0.049 (doa10∆), 2.69 ± 0.051 (pdr5∆), 2.62 ± 0.057 (san1∆) and 2.8 ± 0.038 (ubr1∆).

In the case of LGQIGACHVEVPYVLMG [COB], the protein stability index is, setting by setting: (doa10∆) 2.05 ± 0.083; (pdr5∆) 2.01 ± 0.066; (san1∆) 1.89 ± 0.12; (ubr1∆) 1.95 ± 0.06.

In the case of TPSSDQNPLPTRFEVEL [SOH1], the protein stability index by setting is: (doa10∆) 3.35 ± 0.088; (pdr5∆) 3.1 ± 0.061; (san1∆) 2.65 ± 0.075; (ubr1∆) 3.19 ± 0.049.

On to NTTLQDNVSFIEEAKSI [REC8], for which the protein stability index runs as follows: (doa10∆) 3.1 ± 0.084; (pdr5∆) 3.22 ± 0.091; (san1∆) 3.23 ± 0.064; (ubr1∆) 3.17 ± 0.066.

On to IVSKSIEMYVQEASKQY [RPN2], for which the protein stability index runs as follows: (doa10∆) 2.53 ± 0.087; (pdr5∆) 2.98 ± 0.1; (san1∆) 1.54 ± 0.088; (ubr1∆) 2.68 ± 0.1.

As for FKLQEEERERKDQYVPE [RPS17A], the protein stability index by setting is: (doa10∆) 3.14 ± 0.14; (pdr5∆) 3.38 ± 0.091; (san1∆) 3.4 ± 0.061; (ubr1∆) 3.24 ± 0.093.

As to TKEQYAAESKKYRQTKL [RPL5], the protein stability index came to 3.17 ± 0.14 (doa10∆), 3.28 ± 0.18 (pdr5∆), 3.37 ± 0.094 (san1∆) and 3.12 ± 0.1 (ubr1∆).

As to AQAFVELENSSPELKAE [RPS7A], where the note is “doa10∆”, the protein stability index amounted to 3.08 ± 0.23.

As to EFIPPDPTKVTEFEFYL [SSN8], the protein stability index runs as follows: (doa10∆) 3.04 ± 0.055; (pdr5∆) 2.85 ± 0.039; (san1∆) 2.88 ± 0.051; (ubr1∆) 2.68 ± 0.031.

As to YKVLKQTHPDTGISQKS [HTB1], the protein stability index was 2.42 ± 0.077 (doa10∆), 2.51 ± 0.074 (pdr5∆), 2.21 ± 0.081 (san1∆) and 1.68 ± 0.04 (ubr1∆).

As for CQEEVSTIEKDMKEYDS [SMC2], the protein stability index runs as follows: (doa10∆) 3.39 ± 0.12; (pdr5∆) 3.51 ± 0.084; (san1∆) 3.42 ± 0.081; (ubr1∆) 3.63 ± 0.095.

VNAIKNEVKEWAVTLDT [DSN1]: the protein stability index worked out at 3.11 ± 0.13 (doa10∆), 2.82 ± 0.13 (pdr5∆), 3.1 ± 0.074 (san1∆) and 3.33 ± 0.12 (ubr1∆).

As for TTKRLWSEITESMSYLP [MCD1], the protein stability index came to 3.01 ± 0.12 (doa10∆), 2.91 ± 0.095 (pdr5∆), 2.99 ± 0.11 (san1∆) and 2.73 ± 0.069 (ubr1∆).

Turning to AFPNASKKNRPTLQVGD [RRP40], the protein stability index turned out to be 2.09 ± 0.19 (doa10∆), 2.75 ± 0.11 (pdr5∆), 2.78 ± 0.16 (san1∆) and 2.99 ± 0.17 (ubr1∆).

Take TYRCSIKNLPADVSKLM [SRB2]: the protein stability index was determined as 2.56 ± 0.061 (doa10∆), 2.83 ± 0.05 (pdr5∆), 2.33 ± 0.05 (san1∆) and 2.69 ± 0.044 (ubr1∆).

Consider LDLIPHSSSVFKGTDFV [SRB4], for which the protein stability index amounted to 2.42 ± 0.062 (doa10∆), 2.74 ± 0.057 (pdr5∆), 2.89 ± 0.068 (san1∆) and 2.4 ± 0.041 (ubr1∆).

Regarding AQNQGGQVSMSQFNGSG [PGD1], the protein stability index is, setting by setting: (doa10∆) 3.42 ± 0.12; (pdr5∆) 3.29 ± 0.12; (san1∆) 2.93 ± 0.081; (ubr1∆) 3.23 ± 0.076.

For the sequence LFLNTGCLSVLYQSKGR [SRP68], the protein stability index came out at 1.66 ± 0.054 (doa10∆), 1.55 ± 0.069 (pdr5∆), 1.48 ± 0.12 (san1∆) and 1.25 ± 0.059 (ubr1∆).

For VGSLVVKSSMGPAFRLY [RPL1A], the protein stability index worked out at 3.07 ± 0.059 (doa10∆), 2.95 ± 0.055 (pdr5∆), 3.14 ± 0.051 (san1∆) and 2.73 ± 0.055 (ubr1∆).

As for KEKVEEQEQQQQQIIKI [RPS20], the protein stability index stood at 3.16 ± 0.076 (doa10∆), 3.38 ± 0.11 (pdr5∆), 3.19 ± 0.066 (san1∆) and 3.24 ± 0.091 (ubr1∆).

For IIDVGTHHTDIIPIVDY [ARP9], the protein stability index is, setting by setting: (doa10∆) 2.41 ± 0.088; (pdr5∆) 2.48 ± 0.056; (san1∆) 2.5 ± 0.056; (ubr1∆) 2.59 ± 0.036.

Consider EDDDNEQHEEKAAEGEE [QCR6], for which the protein stability index by setting is: (doa10∆) 3.06 ± 0.083; (pdr5∆) 2.95 ± 0.12; (san1∆) 2.95 ± 0.24; (ubr1∆) 3.2 ± 0.072.

Regarding LRDREDWGQALRLLLLL [YJR042W/NUP85], the protein stability index runs as follows: (doa10∆) 2.83 ± 0.066; (pdr5∆) 2.13 ± 0.067; (san1∆) 2.2 ± 0.083; (ubr1∆) 1.66 ± 0.044.

As for DIGVLEEYARRLAEFKR [SMC4], the protein stability index by setting is: (doa10∆) 3.13 ± 0.12; (pdr5∆) 3.38 ± 0.11; (san1∆) 2.74 ± 0.096; (ubr1∆) 3.35 ± 0.077.

Consider ATANATANATAELNLPT [SNF11], for which the protein stability index worked out at 3.096 ± 0.028 (doa10∆), 3.265 ± 0.029 (pdr5∆), 3.212 ± 0.032 (san1∆) and 3.282 ± 0.02 (ubr1∆).

Consider FMSNDGPTLEKYISAEL [SNU114], for which the protein stability index runs as follows: (doa10∆) 2.18 ± 0.069; (pdr5∆) 2.83 ± 0.078; (san1∆) 3.03 ± 0.054; (ubr1∆) 3.24 ± 0.082.

As to WDHPVIAGVITRSKRLS [CSN12], the protein stability index runs as follows: (doa10∆) 2.86 ± 0.17; (pdr5∆) 2.82 ± 0.11; (san1∆) 3.13 ± 0.11; (ubr1∆) 3.02 ± 0.068.

For the sequence LNSLSPQAILAKNSIID [SWI1], the protein stability index came out at 1.79 ± 0.033 (doa10∆), 1.72 ± 0.029 (pdr5∆), 1.8 ± 0.044 (san1∆) and 1.75 ± 0.026 (ubr1∆).

With YLKHVSRRFKNGFQTGS [RPL37A], the protein stability index (doa10∆) is 2.06 ± 0.085, the protein stability index (pdr5∆) amounted to 3.23 ± 0.062, the protein stability index (san1∆) was 3.16 ± 0.084 and the protein stability index (ubr1∆) stood at 3.46 ± 0.056.

Sequence RQELQMQRQQQGISGSQ [SNF2] gave a protein stability index (doa10∆) of 2.65 ± 0.049, a protein stability index (pdr5∆) of 2.95 ± 0.046, a protein stability index (san1∆) of 2.94 ± 0.042 and a protein stability index (ubr1∆) of 2.9 ± 0.041.

Consider SPERFATLGIDPPKGIL [RPT1], for which the protein stability index (doa10∆) came out at 2.74 ± 0.066, the protein stability index (pdr5∆) came to 2.76 ± 0.058, the protein stability index (san1∆) was found to be 2.42 ± 0.078 and the protein stability index (ubr1∆) turned out to be 2.77 ± 0.045.

In turn, IYYTPAFFHLFASLRVL [YJL039C/NUP192] displayed a protein stability index (doa10∆) of 1.73 ± 0.08, a protein stability index (pdr5∆) of 1.71 ± 0.081, a protein stability index (san1∆) of 1.43 ± 0.13 and a protein stability index (ubr1∆) of 1.75 ± 0.083.

QEEGSFEFGNMKATSNT [FAS2] showed a protein stability index (doa10∆) of 3.28 ± 0.05, a protein stability index (pdr5∆) of 3.38 ± 0.07, a protein stability index (san1∆) of 3.14 ± 0.056 and a protein stability index (ubr1∆) of 3.17 ± 0.042.
